Here are results for two molecules from article PMC5815094, “Interplay between the catabolite repression control protein Crc, Hfq and RNA in Hfq-dependent translational regulation in Pseudomonas aeruginosa”.

Data set [1] concerns the target T1, Hfq;Crc (Pseudomonas aeruginosa PAO1;Pseudomonas …, UniProt Q9HUM0;Q51380 1-82;1-259, |). The data set can be described thus: co-IP (anti-Hfq); RNA-dependent Crc capture; ES buffer: 10 mM Tris pH 8.0, 10 mM KCl, 40 mM NaCl, 1 mM MgCl2; MST + 0.05% Tween-20, room temperature; EMSA + 25 ng tRNA per 10 ul, 37 C 15 min (Fig 6D); NMR. The following applies: protein: recombinant;recombinant; tags: none stated;His6-tag (N-terminal) removed with HRV14-3C; chain copies: 6;1.

For data set [2], the target named is Hfq (Pseudomonas aeruginosa PAO1, UniProt Q9HUM0 1-82). The data set can be described thus: MST; 30 nM labelled Hfq6, no Crc; ES buffer: 10 mM Tris pH 8.0, 10 mM KCl, 40 mM NaCl, 1 mM MgCl2; MST + 0.05% Tween-20, room temperature; EMSA + 25 ng tRNA per 10 ul, 37 C 15 min (Fig 6D); NMR. The following applies: protein: recombinant; tags: none stated; chain copies: 6; label: 5'-32P (EMSA); unlabelled (MST). (In EMSA bound probe runs differently from free probe, usually more slowly.)

Data set [3] has as its target T1, Hfq;Crc. Briefly: MST; 30 nM labelled Hfq6, RNA titrated, 360 nM Crc; ES buffer: 10 mM Tris pH 8.0, 10 mM KCl, 40 mM NaCl, 1 mM MgCl2; MST + 0.05% Tween-20, room temperature; EMSA + 25 ng tRNA per 10 ul, 37 C 15 min (Fig 6D); NMR. The following applies: protein: recombinant;recombinant; tags: none stated;His6-tag (N-terminal) removed with HRV14-3C; chain copies: 6;1; label: 5'-32P (EMSA); unlabelled (MST).

Usually Kd stands for a measure of binding affinity in units of concentration.

Consider AAAAAAAAAAAAAAAAAAAAAAAAAAA (ssRNA) [poly(A)27], for which the binding result in data set [1] was “binds”.
As for AAAAAUAACAACAAGAGG (ssRNA) [amiE6ARN], the Kd in data set [2] is 43.2 ± 2.3 nM; in data set [3], 33.9 ± 1.7 nM.
